Measurements reported in the Human Domainome abundance scans (Beltran et al. 2025).
± gives the uncertainty stated by the source.

B1: Serine/threonine-protein kinase A-Raf, residues 21 to 89; numbered along this chain, P10398 (parent)
chain: VKVYLPNKQRTVVTVRDGMSVYDSLDKALKVRGLNQDCCVVYRLIKGRKTVTAWDTAIAPLDGEELIVE

Variants of: B1
Assay: abundance fitness (aPCA) (normalised: wild type 0, dead -1); higher = more abundant; growth selection in yeast, the domain comes from the species named
Conditions: Homo sapiens

Variant | abundance fitness
VKVYLHNKQRTVVTVRDGMSVYDSLDKALKVRGLNQDCCVVYRLIKGRKTVTAWDTAIAPLDGEELIVE [P6H] | -0.683 ± 0.34
VKKYLPNKQRTVVTVRDGMSVYDSLDKALKVRGLNQDCCVVYRLIKGRKTVTAWDTAIAPLDGEELIVE [V3K] | -0.622 ± 0.11
VKVYLPNKQRTVVTVRDGMSVYDSLDKALKVRGLNQDCCVVYRLIKGRKTVTAWDTAIAPLDGEYLIVE [E65Y] | -0.305 ± 0.19
VKVYLPNKQRTVVTVRDGMSVYDSLDKALKVRGLNQDCCVVYRLIKGRKTVTAWDTAIMPLDGEELIVE [A59M] | 0.078 ± 0.06
VKVYLPNKQRTVVTVRDGMSVYDSLDKALKVRGLNQDCCVVYRLIKGRKTVTAWDTALAPLDGEELIVE [I58L] | -0.015 ± 0.039
VKVMLPNKQRTVVTVRDGMSVYDSLDKALKVRGLNQDCCVVYRLIKGRKTVTAWDTAIAPLDGEELIVE [Y4M] | 0.032 ± 0.06
VKVYLPNKQRTVVTVRDGMSVYDSLDKALKVRGLNQDCCVVYRLIKGRYTVTAWDTAIAPLDGEELIVE [K49Y] | -0.668 ± 0.19
VKVYLPNKQRTVVTVRDGMSVYDSKDKALKVRGLNQDCCVVYRLIKGRKTVTAWDTAIAPLDGEELIVE [L25K] | -0.542 ± 0.09
VKVYLPNKQRTPVTVRDGMSVYDSLDKALKVRGLNQDCCVVYRLIKGRKTVTAWDTAIAPLDGEELIVE [V12P] | -0.748 ± 0.26
VKVYLPNKQRTVVTVRDGMSVYDSLDKALKVRGLNQDCCVVYRLIKGRKTVTAWDTAIAPLAGEELIVE [D62A] | 0.004 ± 0.064
VKVYLPNKQRTVVTVRDGMSVYDSLDKALKVRGLNQDCCVVYRLIKGRKTHTAWDTAIAPLDGEELIVE [V51H] | -0.156 ± 0.22
VKVYLPNKQRTVVTVRDGMSVYDSLDKALKVRGLNQDCCVVYRLIKGRKTLTAWDTAIAPLDGEELIVE [V51L] | 0.026 ± 0.046
VKVYLPNKQRTVVTVRDGMSVYDSLDKALKVRGLNQDCCVVYRLIKGRKTVTAWDTAIAPLYGEELIVE [D62Y] | -0.311 ± 0.16
VKVYLPNKQRTVVTVRDGMSVYDSLDKALKVRGLNQDCCVVYRLIKGRKTVTAWDTAIAPLDGEKLIVE [E65K] | -0.122 ± 0.071
VKVYTPNKQRTVVTVRDGMSVYDSLDKALKVRGLNQDCCVVYRLIKGRKTVTAWDTAIAPLDGEELIVE [L5T] | -0.916 ± 0.13
VKVYLPNKQRTVVTVRDGMSVYDSLDKALKVRGLNQCCCVVYRLIKGRKTVTAWDTAIAPLDGEELIVE [D37C] | -0.273 ± 0.098
VKVYLPNKQRTVVTVRDGMSVYDPLDKALKVRGLNQDCCVVYRLIKGRKTVTAWDTAIAPLDGEELIVE [S24P] | -0.896 ± 0.21
VKVYLPNKQRTVVTVRDGMSVYDSLDKALKVRGLNQDCCVVYRLIKGRKTVCAWDTAIAPLDGEELIVE [T52C] | -0.161 ± 0.11
VKVYLPNKQRTVVTVRDGMSVYDSLDKALKVRGLNQDCCVVYRLIKGRKTVTAWDTAIAPLKGEELIVE [D62K] | -0.097 ± 0.077
VKVYLPNKQRTVVTVRDGMSVYDSLDKALKVRGLNQDCCVVYRLQKGRKTVTAWDTAIAPLDGEELIVE [I45Q] | -0.078 ± 0.087

Variant | abundance fitness
VKVYLPNKQRTVVTVRDGMSVYDSLDKALKVRGLNQDCCVVYREIKGRKTVTAWDTAIAPLDGEELIVE [L44E] | -0.279 ± 0.08
VKVLLPNKQRTVVTVRDGMSVYDSLDKALKVRGLNQDCCVVYRLIKGRKTVTAWDTAIAPLDGEELIVE [Y4L] | 0.068 ± 0.042
VKVYLPNKQRTVVTVRDGTSVYDSLDKALKVRGLNQDCCVVYRLIKGRKTVTAWDTAIAPLDGEELIVE [M19T] | -0.034 ± 0.071
VKVYLPNKQRTVVTVRDGMSVYDSLDKALKVRGLNQDCCVVARLIKGRKTVTAWDTAIAPLDGEELIVE [Y42A] | -1.05 ± 0.22
VKVYLPNKQRTVVTVRDGMSVYDSLDKALAVRGLNQDCCVVYRLIKGRKTVTAWDTAIAPLDGEELIVE [K30A] | -0.218 ± 0.047
VKVYLPNKQRTVVTVRDGMSVYDSLDKALKVRGLNQDCCVVYRLIKGRKTVTAWDTAIAPLDDEELIVE [G63D] | -0.187 ± 0.16
VKVYLPNKQRTMVTVRDGMSVYDSLDKALKVRGLNQDCCVVYRLIKGRKTVTAWDTAIAPLDGEELIVE [V12M] | -0.264 ± 0.047
VKVYLPNKQRTVVTVRDGMSVYDSLEKALKVRGLNQDCCVVYRLIKGRKTVTAWDTAIAPLDGEELIVE [D26E] | 0.04 ± 0.093
VKVYLPNKQRTVVTVRDGMSVYDSLDKALKVRGLNQDCCVVYRLIKGRKTVTAWETAIAPLDGEELIVE [D55E] | -0.089 ± 0.036
VKVYLPNKQRTVVSVRDGMSVYDSLDKALKVRGLNQDCCVVYRLIKGRKTVTAWDTAIAPLDGEELIVE [T14S] | -0.156 ± 0.067
VKVYLPYKQRTVVTVRDGMSVYDSLDKALKVRGLNQDCCVVYRLIKGRKTVTAWDTAIAPLDGEELIVE [N7Y] | -0.19 ± 0.087
VKVYLPNKQRTVVTVRDGMDVYDSLDKALKVRGLNQDCCVVYRLIKGRKTVTAWDTAIAPLDGEELIVE [S20D] | -0.296 ± 0.14
VKVYLPNKQRMVVTVRDGMSVYDSLDKALKVRGLNQDCCVVYRLIKGRKTVTAWDTAIAPLDGEELIVE [T11M] | -0.002 ± 0.059
VKVYLPGKQRTVVTVRDGMSVYDSLDKALKVRGLNQDCCVVYRLIKGRKTVTAWDTAIAPLDGEELIVE [N7G] | 0.041 ± 0.026
VKVYLPNKQRTVVTVRDGMSVYDSLDKALKVRGLNQDCCVVYRLIKGRKTVTDWDTAIAPLDGEELIVE [A53D] | -0.03 ± 0.14
VKVYLPNKQRTVVTVRDGMSVYDSLDKALKVRGLNQDCCVVYRLIKGRKTVTAVDTAIAPLDGEELIVE [W54V] | -0.913 ± 0.14
VKVYLPNKQRTVVTVRDGMNVYDSLDKALKVRGLNQDCCVVYRLIKGRKTVTAWDTAIAPLDGEELIVE [S20N] | -0.122 ± 0.098
VKVYLPNKQRTVVTVRDGMSVYDSLDKALKVRGLNQDCCVVYRLIKGRKTVTAWDTAIAPLDGEELIVV [E69V] | -0.43 ± 0.098
VKVYLPNKQRTVVTVRDGMSVYDSLDKALKVRGLYQDCCVVYRLIKGRKTVTAWDTAIAPLDGEELIVE [N35Y] | -0.019 ± 0.21
